Data as given in paper PMC6310132 (2016).

T1: Dopamine D1A D1A4 (Rattus norvegicus, UniProt P18901)
T1 chain: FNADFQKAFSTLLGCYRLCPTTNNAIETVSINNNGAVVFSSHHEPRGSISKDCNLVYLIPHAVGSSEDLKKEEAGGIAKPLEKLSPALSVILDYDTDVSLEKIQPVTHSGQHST

B1: snapin (protein)
chain: AAAGSAAVSGAGTPVAGPTGRDLFAEGLLEFLRPAVQQLDSHVHAVRESQVELREQIDNLATELCRINEDQKVALDLDPYVKKLLNARRRVVLVNNILQNAQERLRRLNHSVAKETARRRAMLDSGVYPPGSPSK

What was measured:
[1] = molecular target: B1; experiment: SPR
[2] = molecular target: T1, Dopamine D1A D1A4; experiment: SPR

| Kd [1] | Kd [2] | Binder |
| --- | --- | --- |
| 23.4 nM | – | otoferlin C2F (protein) DMPAPGTPLDISPRKPKKYELRVIVWNTDEVVLEDDDFFTGEKSSDIFVRGWLKGQQEDKQDTDVHYHSLTGEGNFNWRYLFPFDYLAAEEKIVMSKKESMFSWDETEYKIPARLTLQIWDADHFSADDFLGAIELDLNRFPRGAKTAKQCT |
| – | 14.6 nM | B1 |
